{"source": "paper PMC3901395", "about": "“Multivalent interactions of the SUMO-interaction motifs in RING finger protein 4 determine the specificity for chains of the SUMO” (Biochemical Journal, 2013)", "molecules": {"B1": {"name": "RNF4 FL: full-length human RNF4 (RING finger protein 4); FLAG-tagged in yeast, HA-tagged in HeLa cells (protein)", "chain": "MSTRKRRGGAINSRQAQKRTREATSTPEISLEAEPIELVETAGDEIVDLTCESLEPVVVDLTHNDSVVIVDERRRPRRNARRLPQDHADSCVVSSDDEELSRDRDVYVTTHTPRNARDEGATGLRPSGTVSCPICMDGYSEIVQNGRLIVSTECGHVFCSQCLRDSLKNANTCPTCRKKINHKRYHPIYI", "modifications": "left off: GST, end not stated, cleaved", "notes": "full-length human RNF4 (RING finger protein 4); FLAG-tagged in yeast, HA-tagged in HeLa cells"}}, "system": "(SUMO2)4–GFP–HA2", "assay": "Pulse–chase analysis of (SUMO2)4–GFP–HA2 turnover in yeast", "type": "cell-based, S. cerevisiae", "conditions": "2 min pulse labelling with [35S]methionine, anti-HA immunoprecipitation, phosphorimaging", "description": "To correlate the strength of the interaction of RNF4 and its SIM mutants with poly-SUMOs to the activity of RNF4 in living cells, we made use of our previous findings that RNF4 is functional in yeast and disrupts PML-NBs in mammalian cells. We therefore co-expressed combinations of full-length wt RNF4 or its SIM mutants with poly-SUMO chains that retained the native N-terminus on the first SUMO moiety and were C-terminally tagged with GFP–HA in S. cerevisiae. As shown in Figures 3(A)–3(C), the poly-SUMO–GFP–HA reporter constructs were efficiently targeted for degradation. Compared with the control transformants not expressing RNF4, the levels of di-SUMO2 were reduced to approximately 55%, and this effect was enhanced if the chain was composed of three or four SUMOs (45% and 43% of control levels respectively). […]\nConcentrated di-SUMO2-/Delta1N11 (10 mg/ml) in crystallization […] buffer was used for crystallization experiments by hanging-drop […] vapour diffusion. Crystals grew in a solution of 0.1 M Tris/HCl, […] pH 8.0, 28 % PEG 350 MME (Qiagen) and 0.05 % dioxane within […] 2–4 days at room temperature (21 ◦ C). […]", "data": [{"molecule": "B1", "values": [{"measurement": "turnover of linear tetra-SUMO2 reporter, pulse–chase", "value": "degraded upon coexpression of RNF4"}]}]}
